The assay addresses T1, dysfunctional P2X7 receptor (human, UniProt Q99572 1-595).
T1 construct: Endogenous on cancer cell lines (MOLM-13, JeKo-1); also called nfP2X7; nfP2X7 receptor
T1 sequence: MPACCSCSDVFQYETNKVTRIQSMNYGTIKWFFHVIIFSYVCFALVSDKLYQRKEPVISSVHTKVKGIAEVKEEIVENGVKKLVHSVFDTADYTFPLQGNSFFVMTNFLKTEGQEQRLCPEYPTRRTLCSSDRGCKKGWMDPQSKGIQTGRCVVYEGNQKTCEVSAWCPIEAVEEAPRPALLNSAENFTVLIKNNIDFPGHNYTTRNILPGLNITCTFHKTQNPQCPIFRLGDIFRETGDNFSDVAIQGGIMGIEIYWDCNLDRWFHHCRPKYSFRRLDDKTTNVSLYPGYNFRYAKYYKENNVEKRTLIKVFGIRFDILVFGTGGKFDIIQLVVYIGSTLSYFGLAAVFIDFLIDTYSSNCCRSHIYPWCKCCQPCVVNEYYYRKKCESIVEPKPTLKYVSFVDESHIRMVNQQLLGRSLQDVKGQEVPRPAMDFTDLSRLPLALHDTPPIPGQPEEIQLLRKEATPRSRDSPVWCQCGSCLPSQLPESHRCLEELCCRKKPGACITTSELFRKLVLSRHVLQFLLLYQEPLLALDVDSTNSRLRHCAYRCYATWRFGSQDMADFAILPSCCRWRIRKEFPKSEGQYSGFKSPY
In words: flow cytometry, anti-HIS-FITC, MOLM-13 cells. The protocol:
Indirect staining of artificial proteins on MOLM-13 cells via anti-HIS staining. […] Histogram overlay of HIS-FITC positivity on MOLM-13. […] HIS-ab was used according to manufacturer with 1 μl per test, target cells were incubated with 50 μl of supernatant from Lenti-X™ 293T cells for 10 min at room temperature. Supernatant harvested 48 h after transfection.
On the technique in general: A flow cytometer gives signals particle by particle.

B1: Orchestration molecule OR2-3 (nfP2X7), IgG1 format (antibody, V domains shown)
VH: EVQLLESGGGLVQPGGSLRLSCAASGFTFRNHDMGWVRQAPGKGLEWVSAISGSGGSTYYANSVKGRFTISRDNSKNTLYLQMNSLRAEDTAVYYCAEPKPMDTEFDYRSPGTLVTVSS
VL: DIQMTQSPSSLSASVGDRVTITCRASQYIYDYLNWYQQKPGKAPKLLIYAASYLQSGVPSRFSGSGSGTDFTLTISSLQPEDFATYYCQQYHHPSTFGQGTKVEIKR
notes: Tested as supernatant; also called OR2 paired to OR3
B1: the binding result is “binds”.

The values above are taken from US20240368282A1 (BIOSCEPTRE AUST, published 2024).
